Data as given in patent publication US20220154156A1, “PROTEINS AND METHODS FOR DISRUPTING BACTERIAL COMMUNICATION” (REGENTS OF THE UNIVERSITY OF MINNESOTA, priority 2019, published 2022).

Experiments:
[1] = tested on: bacterial communities at the surface of the steel; assay: 16S rDNA analysis of microbial community on steel coupons; settings: treated coupons
Experimental: After photo imaging, on each of the coupon surface, all material including biofilm and tubercles were scraped into a sterile 50 ml polypropylene centrifuge tube (Corning, N.Y., USA) using a steel scraper. A 0.5 g subsample of the surface material from each coupon sample was used for DNA extraction using PowerSoil DNA kit (MoBio Laboratories). The extracted DNA was used to sequence the V4 region of 16S rDNA gene and describe changes in the composition of bacterial communities. DNA samples were quantified with a NanoDrop 2000 Spectrophotometer (Thermo Scientific, Waltham, Mass. USA) and then sent overnight to the University of Minnesota Genomics Center for 16S rDNA sequencing. 30 samples were multiplexed into a single run of Illumina MiSeq paired-end 300 cycles, which was expected to generate a total of 15 million sequences of the 254 bp portions of the 16S rDNA V4 region.
Sequence data were processed and analyzed using the MOTHUR program. To ensure high quality data for analysis, sequence reads containing ambiguous bases, homopolymers >7 bp, more than one mismatch in the primer sequence, or an average per base quality score below 25 were removed. Sequences that only appear once in the total set were assumed to be a result of sequencing error and removed from the analysis. Chimeric sequences were also removed using the UCHIME algorithm within the MOTHUR program. […]

[2] = tested on: suspension soil microbial community; assay: Effect of lactonase on suspension soil community; format: cell-based; settings: 0.5 mg/mL, days 3 and 7
Experimental: Inoculum were prepared by re-suspending about 5 grams of soil (taken outside GortnerLab building, Saint Paul Campus, Saint Paul, Minn., USA) in 40 mL of water. After a homogenous mixture was achieved, the suspension was lightly centrifuged (5 min, 500×g) and 200 uL of the cloudy supernatant was added to 30 mL of LB media and allowed to grow overnight. This inoculum was used to inoculate 15× diluted LB media (in water) cultures. […] Samples were collected for DNA extraction after 3 and 7 days.
All samples were processed using Mothur v1.35.1. For each sample, 1,250 sequences were used for final analyses. […] Analysis of similarity (ANOSIM) and analysis of molecular variances (AMOVA) were used to evaluate the beta diversity (community composition) among samples using Bray-Curtis dissimilarity matrices (BC) (Bray & Curtis 1957; Clarke 1993). Ordination of Bray-Curtis matrices was performed using principal coordinate analysis (PCoA) to further analyze diversity of sample days throughout the tank (Anderson & Willis 2003). To visualize the distribution of taxonomies and diversities in microbial communities among the samples, R v3.3.1 was used to conduct the normalized relative abundance and OTUs at genus level^45. All of alpha values evaluated at α=0.05.

[3] = tested on: Clavibacter michiganensis subsp. Nebraskensis; assay: Corn infection assay; format: in vivo; settings: lactonase spray
Experimental: FIG. 31 show control of plant infections by a single spraying of 1 mL of lactonase solution (10 mg/mL) on corn leaves. The Viking maize seed (40-30UP) were grown in Euro pot (diameter 8 inch) with sterilized soil mixture (50 standard soil/50 Germinating Mix) in a green house under diurnal conditions with 16 hours lights at 22° C. and 8 hours dark at 18° C. Plant leaves were infected with Clabibacter michiganensis subsp. nebraskensis by dipping the clipped leaf into cell suspension ([…]). Shown are duplicates plants for the control treatment (left) and lactonase treatment (right).
Moreover, we specifically established a corn infection assay using the pathogen Clavibacter michiganensis subsp. Nebraskensis.

B1: SsoPox W263I: improved variant of the hyperthermostable lactonase SsoPox from Sulfolobus solfataricus, exhibiting higher catalytic rates (protein, UniProt Q97VT7 1-314, looked up, variant W263I)
Aryldialkylphosphatase: MRIPLVGKDSIESKDIGFTLIHEHLRVFSEAVRQQWPHLYNEDEEFRNAVNEVKRAMQFGVKTIVDPTVMGLGRDIRFMEKVVKATGINLVAGTGIYIYIDLPFYFLNRSIDEIADLFIHDIKEGIQGTLNKAGFVKIAADEPGITKDVEKVIRAAAIANKETKVPIITHSNAHNNTGLEQQRILTEEGVDPGKILIGHLGDTDNIDYIKKIADKGSFIGLDRYGLDLFLPVDKRNETTLRLIKDGYSDKIMISHDYCCTIDIGTAKPEYKPKLAPRWSITLIFEDTIPFLKRNGVNEEVIATIFKENPKKFFS
abundance of Burkholderiales, Pseudomonadales and Rhodospirillales [1]: significantly reduced | composition of suspension community vs inactive variant [2]: communities are significantly different | symptoms of infection in corn plants [3]: protected the plant from showing any symptoms of infection
